Assay results as given in IntAct's records for PubMed 17974954.

B1: Tyrosine-protein phosphatase non-receptor type 1 (Homo sapiens), P18031 (parent)
chain: MEMEKEFEQIDKSGSWAAIYQDIRHEASDFPCRVAKLPKNKNRNRYRDVSPFDHSRIKLHQEDNDYINASLIKMEEAQRSYILTQGPLPNTCGHFWEMVWEQKSRGVVMLNRVMEKGSLKCAQYWPQKEEKEMIFEDTNLKLTLISEDIKSYYTVRQLELENLTTQETREILHFHYTTWPDFGVPESPASFLNFLFKVRESGSLSPEHGPVVVHCSAGIGRSGTFCLADTCLLLMDKRKDPSSVDIKKVLLEMRKFRMGLIQTADQLRFSYLAVIEGAKFIMGDSSVQDQWKELSHEDLEPPPEHIPPPPRPPKRILEPHNGKCREFFPNHQWVKEETQEDKDCPIKEEKGSPLNAAPYGIESMSQDTEVRSRVVGGSLRGAQAASPAKGEPSLPEKDEDHALSYWKPFLVNMCVATVLTAGAYLCYRFLFNSNT

Variants of: B1
Details: with src_human SRC

Row | effect of a mutation on the interaction | Variant
1 | disrupting interaction | C215S
